Patent US20220160843A1 (priority 2019, published 2022)

B1: GN156: Modified GN4, addition of N-terminal peptide GPRRPRRPGRRAPV, SEQ ID NO: 6 (protein)
chain: GPRRPRRPGRRAPVMRTSQRGIDLIKSFEGLRLSAYQDSVGVWTIGYGTTRGVTRYMTITVEQAERMLSNDIQRFEPELDRLAKVPLNQNQWDALMSFVYNLGAANLASSTLLKLLNKGDYQGAADQFPRWVNAGGKRLDGLVKRRAAERALFLEPLS
B2: GN37: Native lysin, WP_014102102.1/VanY, SEQ ID NO: 12; first disclosed in WO/2017/049233 (protein, listed as Micavibrio aeruginosavorus)
chain: MTYTLSKRSLDNLKGVHPDLVAVVHRAIQLTPVDFAVIEGLRSVSRQKELVAAGASKTMNSRHLTGHAVDLAAYVNGIRWDWPLYDAIAVAVKAAAKELGVAIVWGGDWTTFKDGPHFELDRSKYR
B3: GN147: Modified GN3, amino acid substitutions (R101D, R117H), SEQ ID NO: 5 (protein)
chain: MRTSQRGLSLIKSFEGLRLQAYQDSVGVWTIGYGTTRGVKAGMKISKDQAERMLLNDVQRFEPEVERLIKVPLNQDQWDALMSFTYNLGAANLESSTLRDLLNAGNYAAAAEQFPHWNKAGGQVLAGLTRRRAAERELFLGAA
B4: GN92: Modified GN4, N-terminal peptide KFFKFFKFFK with linker, SEQ ID NO: 7 (protein)
chain: KFFKFFKFFKAGAGAGAGAGAGAGAGASMRTSQRGIDLIKSFEGLRLSAYQDSVGVWTIGYGTTRGVTRYMTITVEQAERMLSNDIQRFEPELDRLAKVPLNQNQWDALMSFVYNLGAANLASSTLLKLLNKGDYQGAADQFPRWVNAGGKRLDGLVKRRAAERALFLEPLS
B5: GN150: Native lysin, WP_034684053.1/VanY, SEQ ID NO: 19 (protein, listed as Acinetobacter sp.)
chain: MSFKLGKRSLSNLEGVHPDLIKVVKRAIELTECDFTVTEGLRSKERQAQLLKEKKTTTSNSRHLTGHAVDLAAWVNNTVSWDWKYYYQIADAMKKAASELNVSIDWGGDWKKFKDGPHFELTWSKYPIKGAS
B6: GN4: Native lysin, YP_002284361.1/Lysozyme, SEQ ID NO: 3; first disclosed in WO/2017/049233 (protein)
chain: MRTSQRGIDLIKSFEGLRLSAYQDSVGVWTIGYGTTRGVTRYMTITVEQAERMLSNDIQRFEPELDRLAKVPLNQNQWDALMSFVYNLGAANLASSTLLKLLNKGDYQGAADQFPRWVNAGGKRLDGLVKRRAAERALFLEPLS
modifications: Pseudomonas phage PAJU2

test system: P. aeruginosa; experiment: Minimal inhibitory concentration (MIC), modified CLSI broth microdilution in CAA or CAA/HuS; type: cell-based, Pseudomonas aeruginosa; conditions: CAA media

Row | Molecule | MIC (μg/mL) in CAA [µg/mL]
1 | B1 | 32
2 | B2 | >128
3 | B3 | 2
4 | B4 | 32
5 | B5 | 2
6 | B6 | 64

same assay, conditions: CAA supplemented with 25% human serum

Row | Molecule | MIC (μg/mL in CAA/HuS) [µg/mL] | MIC value in CAA/HuS [µg/mL]
7 | B1 | 2 | 
8 | B2 | 32 | 32
9 | B3 | 4 | 4
10 | B4 | 4 | 4
11 | B5 | 32 | 
12 | B6 | 16 | 16

test system: P. aeruginosa strain ATCC 17647; experiment: Minimal Biofilm Eradicating Concentration (MBEC), Calgary Biofilm Device; type: cell-based, Pseudomonas aeruginosa; conditions: 24 h biofilm, 24 h treatment; minimum concentration removing >95% of biofilm biomass (crystal violet)
Text: All samples were examined in triplicate.

Row | Molecule | MBEC [µg/mL]
13 | B1 | 0.5
14 | B2 | 0.25
15 | B3 | 0.25
16 | B4 | 0.5
17 | B5 | 0.25
18 | B6 | 1

test system: carbapenem-resistant clinical strain, WC-452; experiment: Checkerboard assay to examine synergy with antibiotics in CAA/HuS; type: cell-based, P. aeruginosa; conditions: not given
Experimental: Fractional inhibitor concentration index (FICI) values were determined for all combinations; values of <0.5 indicate synergy.
The checkerboard assays is based on a modification of the CLSI method for MIC determination by broth microdilution (26, 29). Checkerboards were constructed by first preparing columns of a 96-well polypropylene microtiter plate, in which each well had the same amount of antibiotic diluted 2-fold along the horizontal axis. […] Summation fractional inhibitory concentrations (ΣFICs) were calculated for each drug and the minimum ΣFIC value (ΣFICmin) was used to determine synergy. ΣFICs were calculated as follows: ΣFIC=FIC A+FIC B, where FIC A is the MIC of each antibiotic in the combination/MIC of each antibiotic alone, and FIC B is the MIC of each GN lysin in the combination/MIC of each GN lysin alone. The combination is considered synergistic when the ΣFIC is ≤0.5, strongly additive when the ΣFIC is >0.5 to <1, additive with the ΣFIC is 1−<2, and antagonistic when the ΣFIC is ≥2.

Row | Molecule | synergy with antibiotics in the checkerboard assay
19 | B2 | synergize with a range of antibiotics
20 | B3 | synergize with a range of antibiotics
21 | B4 | synergize with a range of antibiotics
22 | B5 | synergize with a range of antibiotics
23 | B6 | synergize with a range of antibiotics

same assay, conditions: lysin + amikacin

Row | Molecule | FICI, Amikacin
24 | B2 | 0.125
25 | B3 | 0.375
26 | B4 | 0.375
27 | B5 | 0.313
28 | B6 | 0.531

same assay, conditions: lysin + azithromycin

Row | Molecule | FICI, Azithromycin
29 | B2 | 0.188
30 | B3 | 0.250
31 | B4 | 0.063
32 | B5 | 0.125
33 | B6 | 0.094

same assay, conditions: lysin + aztreonam

Row | Molecule | FICI, Aztreonam
34 | B2 | 0.531
35 | B3 | 0.188
36 | B4 | 0.188
37 | B5 | 0.188
38 | B6 | 0.156

same assay, conditions: lysin + ciprofloxacin

Row | Molecule | FICI, Ciprofloxacin
39 | B2 | 0.281
40 | B3 | 0.281
41 | B4 | 0.281
42 | B5 | 0.250
43 | B6 | 0.250

same assay, conditions: lysin + colistin

Row | Molecule | FICI, Colistin
44 | B2 | 0.156
45 | B3 | 0.188
46 | B4 | 0.094
47 | B5 | 0.094
48 | B6 | 0.156

same assay, conditions: lysin + fosfomycin

Row | Molecule | FICI, Fosfomycin
49 | B2 | 0.313
50 | B3 | 0.250
51 | B4 | 0.500
52 | B5 | 0.375
53 | B6 | 0.250

same assay, conditions: lysin + gentamicin

Row | Molecule | FICI, Gentamicin
54 | B2 | 0.313
55 | B3 | 0.375
56 | B4 | 0.375
57 | B5 | 0.375
58 | B6 | 0.375

same assay, conditions: lysin + imipenem

Row | Molecule | FICI, Imipenem
59 | B2 | 0.313
60 | B3 | 0.375
61 | B4 | 0.125
62 | B5 | 0.375
63 | B6 | 0.125

same assay, conditions: lysin + meropenem

Row | Molecule | FICI, Meropenem
64 | B2 | 0.500
65 | B3 | 0.375
66 | B4 | 0.375

same assay, conditions: lysin + piperacillin

Row | Molecule | FICI, Piperacillin
67 | B2 | 0.375
68 | B3 | 0.188
69 | B4 | 0.500
70 | B5 | 0.500
71 | B6 | 0.313

same assay, conditions: lysin + rifampicin

Row | Molecule | FICI, Rifampicin
72 | B2 | 0.281
73 | B3 | 0.281
74 | B4 | 0.094
75 | B5 | 0.094
76 | B6 | 0.156

same assay, conditions: lysin + tobramycin

Row | Molecule | FICI, Tobramycin
77 | B2 | 0.156
78 | B3 | 0.5
79 | B4 | 0.500
80 | B5 | 0.500
81 | B6 | 0.375

test system: P. aeruginosa; experiment: Time-kill assay of GN lysin activity; type: cell-based, Pseudomonas aeruginosa; conditions: 3-hour timepoint; 10 μg/mL; in either CAA/HuS or HEPES buffer
Experimental: All treatments were incubated at 37° C. with aeration.

Row | Molecule | bactericidal activity in the time-kill assay format
82 | B5 | bactericidal activity

same assay, conditions: CAA/HuS; lysin 10 μg/mL; T = 0 7.8; buffer control 7.2; limit of detection 3.7; ‡ indicates bactericidal activity

Row | Molecule | Log10 CFU/mL T = 3 hr
83 | B1 | <3.7‡ Log10 CFU/mL
84 | B2 | <3.7‡ Log10 CFU/mL
85 | B3 | 4.2‡ Log10 CFU/mL
86 | B4 | <3.7‡ Log10 CFU/mL
87 | B5 | <3.7‡ Log10 CFU/mL
88 | B6 | <3.7‡ Log10 CFU/mL

same assay, conditions: CAA/HuS; lysin 10 μg/mL; T = 0 7.8; buffer control 7.7

Row | Molecule | Log10 CFU/mL T = l hr [Log10 CFU/mL]
89 | B1 | 5.7
90 | B2 | 6.2
91 | B3 | 6.5
92 | B4 | 6.2
93 | B5 | 6.0
94 | B6 | 6.0

same assay, conditions: HEPES buffer; lysin 10 μg/mL; T = 0 7.8; buffer control 7.2; limit of detection 3.7; ‡ indicates bactericidal activity

Row | Molecule | Log10 CFU/mL T = 3 hr
95 | B1 | <3.7‡ Log10 CFU/mL
96 | B2 | <3.7‡ Log10 CFU/mL
97 | B3 | <3.7‡ Log10 CFU/mL
98 | B4 | <3.7‡ Log10 CFU/mL
99 | B5 | <3.7‡ Log10 CFU/mL
100 | B6 | <3.7‡ Log10 CFU/mL

same assay, conditions: HEPES buffer; lysin 10 μg/mL; T = 0 7.8; buffer control 7.7; ‡ indicates bactericidal activity

Row | Molecule | Log10 CFU/mL T = l hr
101 | B1 | 5.7 Log10 CFU/mL
102 | B2 | 6.3 Log10 CFU/mL
103 | B3 | <3.7‡ Log10 CFU/mL
104 | B4 | 5.7 Log10 CFU/mL
105 | B5 | 5.7 Log10 CFU/mL
106 | B6 | 5.7 Log10 CFU/mL
